Reference: paper PMC7484405

What was measured:
M2-1 WT [1] = biological target: T1, M2-1 WT (Human respiratory syncytial virus …, UniProt P04545 1-194); assay: MST
T1 sequence: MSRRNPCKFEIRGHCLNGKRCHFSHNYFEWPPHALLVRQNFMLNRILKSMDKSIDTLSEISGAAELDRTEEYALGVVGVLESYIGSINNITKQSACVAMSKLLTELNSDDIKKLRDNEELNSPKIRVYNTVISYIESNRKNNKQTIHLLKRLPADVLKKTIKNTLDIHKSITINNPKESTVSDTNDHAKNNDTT

M2-1 WT [2] = biological target: T1, M2-1 WT; assay: X-ray crystallography

For AGUUAAUUAAAAA (ssRNA) [SH 13-nt positive-sense gene-end RNA], the Kd (M2-1 WT [1]) was 870 nM.

AGUUAAU (ssRNA) [SH7]: binds (M2-1 WT [2]).
